This passage reports Kd results from PMC9779928, “Tartrate resistant acid phosphatase 5 (TRAP5) mediates immune cell recruitment in a murine model of pulmonary bacterial infection” (Frontiers in Immunology, 2022).

A word on the Kd: it is the constant that tells how readily two partners part at equilibrium.

Test [1] deals with T1, dephosphorylated (non-phosphorylated) osteopontin (recombinant human OPN expressed in E. coli) (human, UniProt P10451 17-314).
T1 construct: osteopontin (OPN), human, recombinant, expressed in E. coli, non-phosphorylated; Commercial protein; Called 'dephosphorylated' but it is simply made in E. coli (non-phosphorylated), not treated with a phosphatase; also called dOPN; SPP1; source: bought: Abcam (expressed in E. coli; purity >= 90% according to the manufacturer)
T1 sequence (P10451 17-314): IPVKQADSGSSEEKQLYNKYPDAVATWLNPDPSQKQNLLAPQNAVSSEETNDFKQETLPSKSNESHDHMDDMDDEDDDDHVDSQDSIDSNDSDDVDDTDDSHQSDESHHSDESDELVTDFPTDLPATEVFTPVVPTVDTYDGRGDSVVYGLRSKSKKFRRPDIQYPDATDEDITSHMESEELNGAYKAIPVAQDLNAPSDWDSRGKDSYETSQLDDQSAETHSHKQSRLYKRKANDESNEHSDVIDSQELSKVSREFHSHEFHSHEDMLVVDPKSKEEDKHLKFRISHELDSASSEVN
In words: SPR; hBD3, SLPI and LL37 immobilised in different flow cells (50 ug/mL in 10 mM sodium acetate pH 5.5); dOPN or pOPN flowed at 10 uL/min; BIAcore X100, 25°C, HBS-EP (10 mM HEPES, 150 mM NaCl, 3 mM EDTA, 0.05% surfactant P20, pH 7.4); Langmuir model. The conditions noted are these: both partners purified. On the technique in general: SPR reads the build-up and loss of mass on a sensor chip optically.

Test [2] has as its target T2, phosphorylated osteopontin (recombinant human OPN derived from HEK293 cells) (human, UniProt P10451 17-314, phosphorylated (sites not given; phosphorylation pattern in Supplementary Figure 2)).
T2 construct: osteopontin (OPN), human, recombinant, expressed in HEK293 cells; Commercial protein; From a eukaryotic host, so it probably differs from dOPN in glycosylation as well as in phosphorylation; also called pOPN; SPP1; source: bought: Peprotech (expressed in HEK293 cells; purity >= 97% according to the manufacturer)
The description is as above. As to conditions: both partners purified.

Ends that are not written are not given here.

T2 sequence (P10451 17-314): as above

B1: human β-defensin-3 (peptide, UniProt P81534 23-67, looked up)
chain: GIINTLQKYYCRVRGGRCAVLSCLPKEEQIGKCSTRGRKCCRRKK
modifications: ends and bridges not checked; cysteine pairing not given here
notes: human beta-defensin 3 (hBD-3), antimicrobial peptide; also called hBD3; hBD-3; source: bought: Abcam
On to B1, for which the Kd came to 83.8 nM in test [1] and 6.5 nM in test [2].

B2: secretory leukocyte protease inhibitor (natural protein, UniProt P03973 26-132, looked up)
chain: SGKSFKAGVCPPKKSAQCLRYKKPECQSDWQCPGKKRCCPDTCGIKCLDPVDTPNPTRRKPGKCPVTYGQCLMLNPPNFCEMDGQCKRDLKCCMGMCGKSCVSPVKA
notes: Commercial protein; also called SLPI; source: bought: Abcam
Consider B2, for which the Kd in test [1] came to 4650 nM; in test [2] it was 6.25 nM.
